Square brackets hold non-standard residues; d marks the D form. Ends that are not written are not given here. BAA = bucky amino acid
Tested on: Rat maxillary incisor pulp cells (RPC-C2A)
Assay: Cell viability assay (Live-Dead Assay Kit), cytotoxicity of fullerene peptide
Assay type: cell-based
Conditions: 4, 40 and 400 μM peptide solutions in PBS, 100 μL mixed with 1.9 mL medium, 48 hrs incubation, Calcein AM / EthD-1
Protocol: Rat maxillary incisor pulp cells (RPC-C2A) were seeded on a 24-well tissue culture plate at 3540 cells per well and incubated for 24 hr at 37° C. in a 5% CO2 environment. Dulbecco's Modified Eagle's Medium (DMEM; Invitrogen, NY) was prepared with 10% fetal bovine serum (FBS; BioWhitaker, Walkersville, Md.), 2 mM Amphothericin B, 1 unit/ml penicillin, and 100 mg/l streptomycin (Invitrogen, NY). Three different concentrations of Fullerene peptide solutions (4, 40, and 400 μM) were prepared in PBS and sterilized using 0.2 μm filter syringe. 100 μL of the solution was mixed with 1.9 mL of medium and added to cells. Control was also prepared by adding PBS buffer solution without peptide-modified fullerene to cells. After 48 hrs of incubation, cell viability was determined using Live-Dead Assay Kit (Molecular Probes, Inc., Eugene, Oreg.). Calcein AM is converted to a green fluorescent product within live cells due to enzymatic activity, while ethidium homodimer-1, a red fluorescent compound, accumulates in dead cells due to increased membrane permeability. After removing medium, cells were rinsed with PBS solution twice. Cells in each well was incubated with 0.4 mL of 4 μM EthD-1 and 2 μM of Calcein AM in PBS for 30 min and observed under fluorescent microscope.
For the statistical analysis, the data were compared with two-tailed, unpaired t-tests. […]

## BAA-Glu-Glu-Glu-Glu-Gly-Gly-Gly-Ser-COOH ([BAA]EEEEGGGS-OH) [fullerene-based peptide, peptide with a bucky amino acid (BAA) at the N-terminus]
  toxicity to the cells (cell viability): no toxicity

— patent US8217137B2, “Fullerene-based amino acids” (William Marsh Rice University, priority 2004, dated 2012)
